Results reported in patent US20040106198A1, “Inhibition of peptide cleavage in plants” (LARGE SCALE BIOLOGY CORPORATION, priority 2002, published 2004).

System: CD34+
Assay: CD34+ proliferation assays
Type: cell-based
Settings: proteins purified from plants
Protocol: The vectors were used to inoculate plant leaves of different sets of plants as described in the examples above. Both plant homogenates and interstitial fluid were extracted as described above. hSCF and pSCF were each purified from 27 plants to yield 0.85 mg (˜15 mg/kg) and 2.5 mg (˜45 mg/kg) of protein respectively.

B1: pSCF: porcine Stem Cell growth Factor expressed in plants from GENEWARE vector (protein)
chain: QGICRNRVTDDVKDVTKLVANLPKDYKITLKYVPGMDVLPSHCWISEMVEQLSVSLTDLLDKFSNISEGLSNYSIIDKLVKIVDDLVECMEEHSFENVKKSSKSPEPRLFTPEKFFGIFNRSIDAFKDLEMVAPKTSECVISSTLTPEKDSRVSVTKPFMLPPVAA
- biological activity in CD34+ proliferation assays: biologically active
